From patent publication US20220195028A1 (Janssen / Centocor, published 2022)

B1: TNV148 (antibody, human IgG1, V domains shown)
VH: QVQLVESGGGVVQPGRSLRLSCAASGFIFSSYAMHWVRQAPGNGLEWVAFMSYDGSNKKYADSVKGRFTISRDNPKNTLYLQMNSLRAEDTAVYYCARDRGIAAGGNYYYYGMDVWGQGTTVTVSS
VL: EIVLTQSPATLSLSPGERATLSCRASQSVYSYLAWYQQKPGQAPRLLIYDASNRATGIPARFSGSGSGTDFTLTISSLEPEDFAVYYCQQRSNWPPFTFGPGTKVDIKR
notes: also called GenTNV148.26.12; C420A
B2: TNV86 (antibody, human IgG1, V domains shown)
VH: B1 VH
VL: B1 VL
notes: also called GenTNV86.14.34; C417A

Assays:
recombinant human TNFα [1] = target: T1, recombinant human TNFα (human, UniProt P01375 77-233); assay: cell-based or functional assay
recombinant human TNFα [2] = target: T1, recombinant human TNFα; assay: competition radioligand assay: mAb in hybridoma supernatant preincubated with 5 ng/ml 125I-TNFα, then binding of TNFα to plate-coated p55-sf2 counted as cpm bound
Description: Varying amounts of hybridoma cell supernatants containing known amounts of TNV mAb were preincubated with a fixed concentration (5 ng/ml) of ¹²⁵I-labeled TNFα. […] The amount of TNFα that bound to the p55 receptor in the presence of the mAbs was determined after washing away the unbound material and counting using a gamma counter. Although eight TNV mAb samples were tested in these experiments, for simplicity three of the mAbs that were shown by DNA sequence analyses to be identical to one of the other TNV mAbs (see Section 5.2.2) are not shown here. Each sample was tested in duplicate. The results shown are representative of two independent experiments.
(§1) 50:l of p55-sf2 at 0.5:g/ml in PBS was added to Optiplates to coat the wells during a one-hour incubation at 37° C. Serial dilutions of the eight TNV cell supernatants were prepared in 96-well round-bottom plates using PBS/0.1% BSA as diluent. […] The mixture was preincubated for one hour at RT. The coated Optiplates were washed to remove unbound p55-sf2 and 50:l of the ¹²⁵I-TNFα/cell supernatant mixture was transferred to the Optiplates. After 2 hrs at RT, Optiplates were washed three times with PBS-Tween. 100:l of Microscint-20 was added and the cpm bound determined using the TopCount gamma counter.

recombinant human TNFα [3] = target: T1, recombinant human TNFα; assay: 125I-TNFα binding to plate-coated p55-sf2 in presence of varying amounts of mAb in hybridoma supernatant
Description: as §1
A simple binding assay was done to determine whether the eight TNV mAbs contained in hybridoma cell supernatant were capable of blocking TNFα binding to receptor. The concentrations of the TNV mAbs in their respective cell supernatants were first determined by standard ELISA analysis for human IgG.

neutralizing TNFα bioactivity (potency relative to TNV14) (recombinant human TNFα [1]) [fold] | IC50 (read off the curve) (recombinant human TNFα [2]) [ng/mL] | fold better at blocking TNF binding to p55-sf2 (against TNV118 and TNV14) (recombinant human TNFα [3]) [fold] | Binder
4 | ~4 | ~4 | B1
 |  | ~4 | B2
